Data on one protein can be found in PMC9418332, “Perforin-2 clockwise hand-over-hand pre-pore to pore transition mechanism” (Nature Communications, 2022).

This data set concerns the molecule itself. Briefly: high-speed atomic force microscopy (HS-AFM); pre-pore rings on supported E. coli lipid bilayer, buffer acidified with HCl to ~pH 4.0 in the fluid cell; imaging at 200 ms temporal resolution, room temperature; pre-pore ring openings and pore arcs.

B1: Ectodomain of mPFN2 (Perforin-2) (domain or fragment, mouse (printed as mPFN2), UniProt A1L314 20-652, looked up)
chain: DKPLGETGTTGFQICKNALKLPVLEVLPGGGWDNLRNVDMGRVMDLTYTNCKTTEDGQYIIPDEVYTIPQKESNLEMNSEVLESWMNYQSTTSLSINTELALFSRVNGKFSTEFQRMKTLQVKDQAVTTRVQVRNRIYTVKTTPTSELSLGFTKALMDICDQLEKNQTKMATYLAELLILNYGTHVITSVDAGAALVQEDHVRSSFLLDNQNSQNTVTASAGIAFLNIVNFKVETDYISQTSLTKDYLSNRTNSRVQSFGGVPFYPGITLETWQKGITNHLVAIDRAGLPLHFFIKPDKLPGLPGPLVKKLSKTVETAVRHYYTFNTHPGCTNVDSPNFNFQANMDDDSCDAKVTNFTFGGVYQECTELSGDVLCQNLEQKNLLTGDFSCPPGYSPVHLLSQTHEEGYSRLECKKKCTLKIFCKTVCEDVFRVAKAEFRAYWCVAAGQVPDNSGLLFGGVFTDKTINPMTNAQSCPAGYIPLNLFESLKVCVSLDYELGFKFSVPFGGFFSCIMGNPLVNSDTAKDVRAPSLKKCPGGFSQHLAVISDGCQVSYCVKAGIFTGGSLLPVRLPPYTKPPLMSQVATNTVIVTNSETARSWIKDPQTNQWKLGEPLELRRAMTVIHGDSNGMSGG
notes: Perforin-2 (PFN2, MPEG1), mouse (printed as mPFN2), ectodomain, UniProt A1L314 residues 20-652; Applied as monomers (0.043 mg/ml) and self-assembles on the support; The 1D4 tag is inferred from the resin; also called MPEG1; source: HEK293T or HEK293S cells, transient transfection; purified from the media using anti-1D4 antibody-coupled agarose resin
B1: the “stoichiometry N” value is 16 subunits.
